# Results: PMC6511843
# Legend:
# [1] = system: HA.ELK-1;coreSRF; assay: EMSA; conditions: not given in material (EMSA as in ref 29; southwestern as in ref 34, modified)
# [2] = system: ELK-1(K70R);coreSRF; assay: EMSA; conditions: not given in material (EMSA as in ref 29; southwestern as in ref 34, modified)
# [3] = system: ELK-1(K35R);coreSRF; assay: EMSA; conditions: not given in material (EMSA as in ref 29; southwestern as in ref 34, modified)
# [4] = system: ELK-mUBQ; assay: southwestern; conditions: renatured on nitrocellulose; not given in material (EMSA as in ref 29; southwestern as in ref 34, modified)
# [5] = system: HA.ELK-1; assay: EMSA; conditions: not given in material (EMSA as in ref 29; southwestern as in ref 34, modified)
Substance,binding signal (% (reference)) [1],binding signal (% of WT ELK-1) [2],binding signal (% of WT ELK-1) [3],binding signal (fold less than unmodified ELK-1) [4],binding signal (% (reference)) [5]
CFOS SRE,100,80,80,,
E74 site,,,,4,100
